# Source: IntAct's records for PubMed 21900546
# B1: Neutrophil cytosol factor 2 (Homo sapiens), P19878 (parent)
# chain: MSLVEAISLWNEGVLAADKKDWKGALDAFSAVQDPHSRICFNIGCMYTILKNMTEAEKAFTRSINRDKHLAVAYFQRGMLYYQTEKYDLAIKDLKEALIQLRGNQLIDYKILGLQFKLFACEVLYNIAFMYAKKEEWKKAEEQLALATSMKSEPRHSKIDKAMECVWKQKLYEPVVIPVGKLFRPNERQVAQLAKKDYLGKATVVASVVDQDSFSGFAPLQPQAAEPPPRPKTPEIFRALEGEAHRVLFGFVPETKEELQVMPGNIVFVLKKGNDNWATVMFNGQKGLVPCNYLEPVELRIHPQQQPQEESSPQSDIPAPPSSKAPGRPQLSPGQKQKEEPKEVKLSVPMPYTLKVHYKYTVVMKTQPGLPYSQVRDMVSKKLELRLEHTKLSYRPRDSNELVPLSEDSMKDAWGQVKNYCLTLWCENTVGDQGFPDEPKESEKADANNQTTEPQLKKGSQVEALFSYEATQPEDLEFQEGDIILVLSKVNEEWLEGECKGKVGIFPKVFVEDCATTDLESTRREV
# Variants of: B1
# Settings: with rac2_human RAC2, P15153
row,Variant,effect of a mutation on the interaction
1,R38Q,decreasing interaction strength
